The experiment concerns the target hFcRn/β2-microglobulin complex (human) (UniProt P55899). As to the kind of experiment: BLI, His-tagged hFcRn/b2m on Ni-NTA, pH 5.6. On the technique in general: BLI is a label-free optical method that tracks binding on a fibre tip over time.

Chain of hFcRn/β2-microglobulin complex (human) (P55899 24-297 limits assumed, chain 1 of 2): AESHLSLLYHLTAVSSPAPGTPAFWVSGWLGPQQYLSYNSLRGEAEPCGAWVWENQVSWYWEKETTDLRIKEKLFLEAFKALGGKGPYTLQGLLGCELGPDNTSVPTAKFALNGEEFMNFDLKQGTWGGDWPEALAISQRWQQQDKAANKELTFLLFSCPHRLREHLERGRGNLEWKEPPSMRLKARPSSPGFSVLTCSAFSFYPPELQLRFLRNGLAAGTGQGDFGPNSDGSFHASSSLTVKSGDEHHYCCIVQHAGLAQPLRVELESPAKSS
Chain of hFcRn/β2-microglobulin complex (human) (P61769 21-119 limits assumed, chain 2 of 2, further chain): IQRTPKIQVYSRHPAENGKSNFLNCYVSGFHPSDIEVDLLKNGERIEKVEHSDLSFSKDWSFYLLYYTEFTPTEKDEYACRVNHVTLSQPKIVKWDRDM

T-01 MB IgG1 I253V came in with a fold higher affinity than the IgG1 control of over 1000 fold.

For the origin of these results see patent US20250276070A1.
